Data as given in patent US20160053277A1, “Compositions Having Dicamba Decarboxylase Activity and Methods of Use” (PIONEER HI-BRED INTERNATIONAL, INC., priority 2013, published 2016).

Columns and labels:
[1] = Dicamba decarboxylation activity of computationally designed protein variants and their parents
[2] = 14C assay with IPTG-induced recombinant E. coli cells: 14CO2 captured from [14C]-carboxyl-labeled dicamba; details: dicamba decarboxylation activity of the protein of the given SEQ ID NO; High / Low / No
[3] = Saturation mutagenesis of SEQ ID NO:109: dicamba decarboxylation activity of point mutants (carbon dioxide released); details: decarboxylation activity (carbon dioxide released) of point mutant compared with unmutated backbone protein; backbone SEQ ID NO: 109
[4] = Shuffled variant libraries: 14CO2 capturing assay in 384-well format; details: decarboxylation activity (carbon dioxide released) compared with unmutated backbone protein SEQ ID NO 133 (DDEC0201)

| Molecule | Percent Activity Improvement Over Parent ([1]; parent = 100) [%] | dicamba decarboxylase activity (native protein or designed variant) ([1]; statement in the description) | Enzymatic Detection level [2] | Fold Activity [3] | Fold Activity [4] |
| --- | --- | --- | --- | --- | --- |
| 116 (protein, Dicamba decarboxylase variant clone: DC.30.007) MAQGKVALEEHFAIPETLQDAAGFVPGDYWKELQHRLLDIQDRRVRLMDEHGIETMILSLNAPAVQAIADSTRANETARRANDFLAEQVAKQPTRFRGFAALPMQDPELAARELERCVKELGFVGALVNGFSQDNRSAVPLYYDMAQYWPFWETVQALDVPFYLHPRNPLPSDARIYDGHAWLLGPTWAFGQETAVHALRLMGSGLFDKYPALKIILGHMGEGLPYSMWRIDHRNAWIKTTPKYPAKRKIVDYFNENFYLTTSGNFRTQTLIDAILEIGADRILFSTDWPFENIDHAADWFENTSISEADRKKIGWGNAQNLFKLNR | 220 | displays an increase in dicamba decarboxylase activity | High | 1.5 | – |
| 253 (protein, Dicamba decarboxylase variant) MAQGKVALEEHFAIPETLQDSAGFVPGDYWKELQHRLLDIQDTRLKLMDAHGIETMILSLAAPAVQAIPDRVKAIEIARRANDFLAEECAKRPDRFLAFAALPLQDPDAATEELQRCVNDLGFVGALVNGFSQEGDGQTPLYYDLPQYRPFWGEVEKLDVPFYLHPRNPLPQDSRIYDGHPWLLGPTWAFAQETAVHALRLMASGLFDEHPRLNIILGHMGEGLPYMMYRIDHRIAWVKLPPRYPAKRRFMDYFNENFHITTSGNFRTQTLIDAILEIGADRILFSTDWPFENIDHAADWFNATSIAEADRVKIGRTNARRLFKLDGD | – | – | – | 0.9 | 1.7 |
| 254 (protein, Dicamba decarboxylase variant) MAQGKVALEEHFAIPETLQDSAGFVPGDYWKELQHRLLDIQDTRLKLMDAHGIETMILSLAAPAVQAIPDRRQAIEIARRANDFLAEECAKRPDRFLAFAALPLQDPDAASEELQRCVNDLGFVGALVNGFSVEGDGQTPLYYDLPQYRPFWGEVEKLDVPFYLHPRNPLPQDSRIYDGHPWLLGPTWAFAQETAVHALRLMASGLFDEHPRLNIILGHLGEGLPYMMYRIDHRIAWVHPPPRYPAKRRFMDYFNENFHITTSGNFRTQTLIDAILEIGADRILFSTDWPFENIDHAADWFNATSIAEADRVKIGRTNARRLFKLDGA | – | – | – | 1.9 | 1.2 |
| 255 (protein, Dicamba decarboxylase variant) MAQGKVALEEHFAIPETLQDSAGFVPGDYWKELQHRLLDIQDTRLRLMDAHGIETMILSLAAVGVQAIPDRRKAIEIARRANDFLAEECAKRPDRFLAFAALPLQDPDAATEELQRCVNDLGFVGALVNGFSQEGDGQTPLYYDLPQYRPFWGEVEKLDVPFYLHPRNPLPQDSRIYDGHPWLLGPTWAFAQETAVHALRLMASGLFDEHPRLNIILGHMGEGLPYMMYRIDHRIAWVHPPPRYPAKRRSMDYFNENFHITTSGNFRTQTLIDAILEIGADRILFSTDWPFENIDHAADWFNATSIAEADRVKIGRTNARRLFKLDGD | – | – | – | 1.1 | 1.0 |
| 256 (protein, Dicamba decarboxylase variant) MAQGKVALEEHFAIPETLQDSAGFVPGDYWKELQHRLLDIQDTRLNLMDAHGIETMILSLAAPAVQAIPDRRKAIEIARRANDFLAEECAKRPDRFLAFAALPLQDPDAATEELQRCVNDLGFVGALVNGFSQEGDGQTPLYYDLPQYRPFWGEVEKLDVPFYLHPRNPLPQDSRIYDGHPWLLGPTWAFAQETAVHALRLMASGLFDEHPRLNIILGHMGEGLPYMMYRIDHRIAWVHEPPRYPAKRRFMDYFNENFHITTSGNFRTQTLIDAILEIGADRILFSTDWPFENIDHAADWFNATSIAEADRVKIGRTNARRLFKLDVD | – | – | – | 1.7 | 1.0 |
| 257 (protein, Dicamba decarboxylase variant) MAQGKVALEEHFAIPETLQDSAGFVPGDYWKELQHRLLDIQDTRLKLMDAHGIETMILSLAAPAVQAIPDRRKAIEIARRANDFLAEECAKRPDRFLAFAALPLQDVDAATEELQRCVNDLGFVGALVNGFSVEGDGQTPLYYDLPQYRPFWGEVEKLDVPFYLHPRNPLPQDSRIYDGHPWLLGPTWAFAQETAVHALRLMASGLFDEHPRLNIILGHMGEGLPYMMYRIDHRIAWVHEPPRYPAKRRFMDYFLENFHITTSGNFRTQTLIDAILEIGADRILFSTDWPFENIDHAADWFNATSIAEADRVKIGRTNARRLFKLDLD | – | – | – | 2.4 | 1.6 |
| 258 (protein, Dicamba decarboxylase variant) MAQGKVALEEHFAIPETLQDSAGFVPGDYWKELQHRLLDIQDTRLRLMDAHGIETMILSLAAPAVQAIPDRRKAIEIARRANDFLAEECAKRPDRFLAFAALPLQDPDAATEELQRTVNDLGFVGALVNGFSQEGDGQTPLYYDLPQYRPFWGEVEKLDVPFYLHPRNPLPQDSRIYDGHPWLLGPTWAFAQETAVHALRLMASGLFDEHPRLNIILGHMGEGLPYMMYRIDHRIAWVHEPPRYPAKRRFMDYFNENFHITTSGNFRTQTLIDAILEIGADRILFSTDWPFENIDHAADWFNATSIAEADRVKIGRTNARRLFKLDGA | – | – | – | 2.8 | 1.2 |
| 259 (protein, Dicamba decarboxylase variant) MAQGKVALEEHFAIPETLQDSAGFVPSEYLKELQHRLLDIQDTRLKLMDAHGIETMILSLAAPAVQAIPDRRKAIEIARRANDFLAEECAKRPDRFLAFAALPMQDPDAATEELQRCVNDLGFVGALVNGFSVEGDGQTPLYYDLPQYRPFWGEVEKLDVPFYLHPRNPLPQDSRIYDGHPWLLGPTWAFAQETAVHALRLMASGLFDEHPRLNIILGHMGEGLPYMMYRIDHRIAWVHEPPRYPAKRRFMDYFNENFHITTSGNFRTQTLIDAILEIGADRILFSTDWPFENIDHATAWFNATSIAEADRVKIGRTNARRLFKLDGD | – | – | – | 2.4 | 1.8 |
| 260 (protein, Dicamba decarboxylase variant) MAQGKVALEEHFAIPETLQDSAGFVPGDYWKELQHRLLDIQDTRLKLMDAHGIETMILSLAAPAVQAIPDRRKAIEIARRANDFLAEECAKRPDRFLAFAALPMQDPDAASEELQRCVNDLGFVGALVNGFSVEGDGQTPLYYDLPQYRPFWGEVEKLDVPFYLHPRNPLPQDSRIYDGHPWLLGPTWAFAQETAVHALRLMASGLFDEHPRLNIILGHLGEGLPYMMYRIDHRIAWVKLPPRYPAKRRFMDYFNENFHITTSGNFRTQTLIDAILEIGADRILFSTDWPFENIDHAADWFNATSIAEADRVKIGRTNAPSSVQTG | – | – | – | 1.7 | 1.5 |
| 261 (protein, Dicamba decarboxylase variant) MAQGKVALEEHFAIPETLQDSAGFVPGDYWKELQHRLLDIQDTRLKLMDAHGIETMILSLAAPAVQAIPDRVEAIEIARRANDFLAEECAKRPDRFLAFAALPLQDPDAATEELQRCVNDLGFVGALVNGFSQEGDGQTPLYYDLPQYRPFWGEVEKLDVPFYLHPRNPLPQDSRIYDGHPWLLGPTWAFAQETAVHALRLMASGLFDEHPRLNIILGHMGEGLPYMMYRIDHRIAWVHEPPRYPAKRRFMDYFNENFHITTSGNFRTQTLIDAILEIGADRILFSTDWPFENIDHAADWFNATSIAEADRVKIGRTNARRLFKLDGA | – | – | – | 2.3 | 1.2 |
